test system: MS2 coat protein; assay: apparent KD of MS2 coat protein; higher = weaker reporter binding; conditions: Eterna round: R107; input ligand: arginine 13.2 mM
Method in brief: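 Apparent KD was obtained for each design as the median of normalised binding-curve fits over its clusters. RNA switches transcribed on-chip from Illumina sequencing clusters were titrated with SNAP-549-labelled MS2 coat protein (twofold steps, 0.7 or 1.5 nM to 3 µM) in 100 mM Tris-HCl pH 7.5, 80 mM KCl, 4 mM MgCl2, without or with constant ligand.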

Compared with “CACAUGAGGAUCACCCAUGUCUGAACUGAAGGAGCGCUAAACAAGGCAGGUAGGUCGCGGAAUUUUGUGUGCAUAUGCACAUGGG [9.O]”, “GGAUAGGACACGGCCGCCACUAUCUAGGAUACUAGCAACAUUUGGGUAUAUGAGGAUCACCCAUAUAGGACCGGGUGUCCUAUCG” is 7-fold higher in “apparent KD of MS2 coat protein” value: 19.7 nM for the first, 138 nM for the second.

Going from “UGACAUUGCUGCGAUACCAGACAUGAGGAUCACCCAUGUACCAAGAAAACGUACAUAAAUGUCCCUUGGCAGCGCAGCAAUGUCU [MAT - Exclusion Theophlline B - Mod of Eli - D25]” to “CCCAGUCAUAGCAAAGCAAAUAUACUCGAAGGAGCGUCAUAGUAGGCAGGUAGGUCGCGAGACAUGAGGAUCACCCAUGUAGAGA [ooomullin]”, the “apparent KD of MS2 coat protein” value falls from 170 nM to 35.6 nM (4.8-fold).

First: UUAUGAUGUUCCGAUACCAGCCAUGUGGUUCUAACUUAACAUGAGGAUCACCCAUGUACCGGCCCUUGGCAGCGGAUGUGGAUUA [Flamini]
Second: GGAUAGGACACGGCCGCCACUACCUAGGAUACUAGCAACAUUUGGGUACAAGAGGAUCACCCUUGUAGGACCGGGUGUCCUAUCG
The “apparent KD of MS2 coat protein” value of the first is 1.9-fold lower: 12 nM for the first, 23.1 nM for the second.

First: AAUACCGGAUCGGCCGCCACUGGUUGGCCCUGUGUACAUGAGGAUCACCCAUGUCCAUCCCAAGCCAGGACCGGGAUCUUUGUGU [Bedice]
Second: UAAAACAUGAGGAUCACCCAUGUAAAUGAUACCAGAGUGAUGAUCCUCCCUUGGCAGCAUAACGCUGAUUGAUUACAAUCAGCGA [Mat - Same State Theophlline A - Mod of Eli - D22]
The “apparent KD of MS2 coat protein” value of the first is 3.2-fold lower: 17.1 nM for the first, 55.2 nM for the second.

Going from “CCGUUUUAUGGCGACAUAGGGCGGACUGAAGGAGCGGUAAAACAGCCAGGUAGGUCGCAGAGAUCCACAUGAGGAUCACCCAUGU [!0.aC]” to “UGGUGUAGGGUAAAUAGGAUUAGUACAGAAGGAGCGCGAAUAAACGCAGGUAGGUCGCUGGAAUAACAUGAGGAUCACCCAUGUC [Same State Arginine A GF 26]”, the “apparent KD of MS2 coat protein” value falls from 35.7 nM to 19.6 nM (1.8-fold).

Compared with “ACAUGAGGAUCACCCAUGUACAUGAGGGAAGGAGCGGUACAUGUGCCAGGUAGGUCGCCCAACAGCAUCAGCCAUGUACAACAGG [zqwmullin]”, “AAUUAUCACGGAAGGAGCGUCAUGAAAUUGAUACAUGAGGAUCACCCAUGUGAGUGUUAGAGACAGGUAGGUCGCCGAUUAUUGA [JR_AAArginiB_Sub028]” is 1.7-fold lower in “apparent KD of MS2 coat protein” value: 41.3 nM for the first, 24.9 nM for the second.

Going from “AGUAACAUGAGGAUCACCCAUGUAUGAGAAGGAGCGUGUUUUAACACAGGUAGGUCGCUCAAUAUUAAUUUAUUAGAUACAUUUA [JR_SSArginiA_Sub006]” to “AUAGUCUAGAGUGAUACCAGACUACAUGAGGAUCACCCAUGUAUCUUUUGGUUAUCAUGUGUCCCUUGGCAGCACGCAUGUAUAG [JR_ExcTheophyB_Sub013]”, the “apparent KD of MS2 coat protein” value falls from 18.9 nM to 11.3 nM (1.7-fold).

“GGACUAACCAGAAGGAGCGACACGCAGAAACUGCUAAAUCCUCCGCACGAGGAUCACCCGUGUCAGGUAGGUCGCUGGUUAGUCG [ArgBX 28]” and “AACAUCUGGCGUGAUACCAGCCACAUGAGGAUCACCCAUGUCAACACUCGCAAUUGCGACGGCCCUUGGCAGCACGCAUCCUCAG [Sorioncege]” are within 1.5-fold of each other in “apparent KD of MS2 coat protein” value: 36.2 nM for the first, 49 nM for the second.

Going from “GUUAUAGACGGAAGGAGCGCGACCACAUGAGGAUCACCCAUGUAUUGUGUUGGUAAUAGGUCGCAGGUAGGUCGCCGGUUAAUGA [#04 Same State - Arginine B]” to “ACAUGAGGAUCACCCAUGUGUCCUCGAAAACGAGGACCGGUACGGCCGCCACUCGAAAUAAGCUGUUGACGAAAAGUCAGCAGCA [Mat - Exclusion - Trytophan A - D21]”, the “apparent KD of MS2 coat protein” value rises from 27.1 nM to 74.5 nM (2.7-fold).

First: CCUCAAUAGACGGCCGCCACUGAGACAUGAGGAUACAUGAGGAUCACCCAUGUGGGUGUGUCACGCAGGACCGGGUCAAGACCCG [Tryp B SS t2]
Second: CGGUUUGUGAUGGAUACCAGCAGAGUGACUGUUUAUCCUGACAUGAGGAUCACCCAUGUGUGCCCUUGGCAGCUGUUGUGGGCUG [8.aA]
The “apparent KD of MS2 coat protein” value of the first is 2.8-fold higher: 183 nM for the first, 66.3 nM for the second.

Going from “AGCAUGUUAGCAGAUACCAGACGUUUUAUGAUCCAUGUAACAUGAGGAUCACCCAUGUAAGUCCCUUGGCAGCUGAAAUAAUGCA [JR_SSTheophyB_Sub011]” to “UUAAUUAUUGAAUCGUAUUGGUAUUAAGAACGAGGACCGGUACGGCCGCCACUCGUGAUAUACAUGAGGAUCACCCAUGUUAGCA [JR_Nu_SSTryptoA_Sub022]”, the “apparent KD of MS2 coat protein” value falls from 75.7 nM to 15 nM (5-fold).

First: AUACAUGAGGAUCACCCAUGUCAUUCAGAAGGAGCGUCAUUUUAGACAGGUAGGUCGCUGAUAUUAUUCUUAUACUUUAUGUUUA [JR_ExcArginiA_Sub022]
Second: UUUAGUAUCUUAGAUACCAGUUUUGGGUGCUGAACGUCUCACAUGAGGAUCACCCAUGUAAACCCUUGGCAGCUACAUACGUAAA [theeternabot_exclusion_MS2_Theo_B_41]
The “apparent KD of MS2 coat protein” value of the first is 1.7-fold lower: 21 nM for the first, 35.7 nM for the second.

First: CGCACAUGAGGAUCACCCAUGUGAGGGCGGCGAGGACCGGUACGGCCGCCACUCGCAGGACAUGAGGAUCACCCAUGUGCCGCCG [SSTA DOUBLE!!! :-D]
Second: UGAGUUCGCUGAUGGGCUACGUCAGGUGAUACCAGCCACUCCCGCGGCCCUUGGCAGCACAUGAGGAUCACCCAUGUAGAGCUUG [Lazaceonus]
The “apparent KD of MS2 coat protein” value of the first is 1.8-fold higher: 32.5 nM for the first, 17.9 nM for the second.

First: CGAAUAUAGACGGCCGCCACUCUACAAACAUGAGGAUCACCCAUGUUCACAUAGAGGAAACUCAUGAGGACCGGGUCAUAGGCUU [#20 Same State - Tryptophan B]
Second: GCGCGCGCCGAAAGGCGCGCGUGUUGCGAUACCAGCCCGGAAACGGGCCCUUGGCAGCGCACAUGAGGAUCACCCAUGUCAUGUU [Exclusion - Theophylline A Attempt #1 (HarryS)]
The “apparent KD of MS2 coat protein” value of the first is 1.6-fold higher: 23.5 nM for the first, 14.9 nM for the second.

Going from “AAAUGUACGUCGGCCGCCACUGCGCUGAAGACAGUCACAUGAGGAUCACCCAUGUACGACAAGGGUAGGACCGGGAUGUGAGGGU [Rate]” to “AUACAUGAGGAUCACCCAUGUAUAGUCGAUACCAGCUCAAGGAAGAGCCCUUGGCAGCGACACUGGUAUCCAUGGGUGAUACCAG [(Ms2)-(Theo)-(T)'-(M)'-(T)''_Design4]”, the “apparent KD of MS2 coat protein” value falls from 45.1 nM to 17.8 nM (2.5-fold).

Going from “AUACAUGAGGAUCACCCAUGUGAUGGCCGGCGAGGACCGGUACGGCCGCCACUCGUGAUCCGUCCUGAGAGCAAAGCUCUCAGCA [Macete]” to “CACAUGAGGAUCACCCAUGUCUGAACUGAAGGAGCGCUAAAUAAGGCAGGUAGGUCGCGGAAUUUUGUGUGCAUAUGCACAUGGG [9.P]”, the “apparent KD of MS2 coat protein” value falls from 76 nM to 17.2 nM (4.4-fold).

Compared with “GAGCUGAUGUAGAGCUAAUAUAAGAGAGAUACCAGUACAGAAAUGUACCCUUGGCAGCUCAACUUUACAUGAGGAUCACCCAUGU [Ex Theophylline A 21]”, “GUGUGGAGCUCGGCCGCCACUCAAACAUGAGGAUCACCCAUGUAAAACAUGAGGAUCACCCAUGUGAGGACCGGGAGAAACACGA [Exclusion Tryptophan B GF8]” is 15-fold higher in “apparent KD of MS2 coat protein” value: 12.2 nM for the first, 179 nM for the second.

Compared with “UCGACAGUGAACGAUACCAGCGUCACGUGGCCGGUGGUCACAUGAGGAUCACCCAUGUAACGCCCUUGGCAGCGUGCACGUAUCA [Latedirius]”, “ACUAACUAUAGUGAUACCAGACGUACAUGAGGAUCACCCAUGUUACAUUCUUGGUUAAAAGUCCCUUGGCAGCACGAUAAGUUCG [JR_Nu_ExcTheophyB_Sub025]” is 2.1-fold lower in “apparent KD of MS2 coat protein” value: 20.5 nM for the first, 9.7 nM for the second.

Compared with “AAUUCCUCACAUGAGGAUCACCCAUGUGAAGGAGCGCCGAAUAAGGCAGGUAGGUCGCACAUGGAAACCUCUACGAAAGUAGUAA [XArg-A 3 NuV1V2]”, “AAUUAAAACUGAAGGAGCGUCGUGCGUGGGUGCGUCCCACAUGAGGAUCACCCAUGUGGUUGACAGGUAGGUCGCAGAAUAAUUU [Exclusion - Arginine B]” is 4.1-fold higher in “apparent KD of MS2 coat protein” value: 16.5 nM for the first, 66.9 nM for the second.

same assay, conditions: Eterna round: R107; input ligand: none

“CACAUGAGGAUCACCCAUGUCUGAACUGAAGGAGCGCUAAACAAGGCAGGUAGGUCGCGGAAUUUUGUGUGCAUAUGCACAUGGG [9.O]” was tested, and the “apparent KD of MS2 coat protein” value was 28.2 nM.
